Measured values: patent US20090092595A1, “Suppression of sPLA2-integrin binding for treating an inflammatory condition” (REGENTS OF THE UNIVERSITY OF CALIFORNIA, priority 2007, published 2009)

Biological target: T1, αvβ3 on β3-CHO cells (UniProt A0A9J7JSN3+P05106)
T1 construct: expressed in transfected cells; host or cells: CHO
T1 sequence (P05106 27-788): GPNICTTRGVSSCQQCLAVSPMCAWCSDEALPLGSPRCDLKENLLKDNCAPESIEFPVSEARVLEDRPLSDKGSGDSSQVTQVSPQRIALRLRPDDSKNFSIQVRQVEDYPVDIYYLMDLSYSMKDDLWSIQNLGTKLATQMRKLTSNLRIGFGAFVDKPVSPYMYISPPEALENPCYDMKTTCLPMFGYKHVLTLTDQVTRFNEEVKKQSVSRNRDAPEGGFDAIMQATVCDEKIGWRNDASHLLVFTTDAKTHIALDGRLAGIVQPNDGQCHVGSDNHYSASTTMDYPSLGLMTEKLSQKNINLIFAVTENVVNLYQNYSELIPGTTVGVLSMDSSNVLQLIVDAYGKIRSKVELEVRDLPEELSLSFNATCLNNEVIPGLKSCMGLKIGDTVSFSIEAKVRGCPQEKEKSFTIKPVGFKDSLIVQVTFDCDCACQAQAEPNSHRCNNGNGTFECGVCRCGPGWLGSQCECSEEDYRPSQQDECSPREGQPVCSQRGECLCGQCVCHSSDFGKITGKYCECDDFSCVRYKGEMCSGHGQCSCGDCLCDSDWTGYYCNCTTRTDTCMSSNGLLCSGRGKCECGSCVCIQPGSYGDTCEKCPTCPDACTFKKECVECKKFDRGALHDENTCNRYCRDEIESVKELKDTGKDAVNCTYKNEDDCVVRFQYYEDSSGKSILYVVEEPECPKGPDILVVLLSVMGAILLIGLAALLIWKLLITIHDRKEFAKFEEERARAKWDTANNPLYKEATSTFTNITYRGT
T1 sequence (A0A9J7JSN3 31-1043): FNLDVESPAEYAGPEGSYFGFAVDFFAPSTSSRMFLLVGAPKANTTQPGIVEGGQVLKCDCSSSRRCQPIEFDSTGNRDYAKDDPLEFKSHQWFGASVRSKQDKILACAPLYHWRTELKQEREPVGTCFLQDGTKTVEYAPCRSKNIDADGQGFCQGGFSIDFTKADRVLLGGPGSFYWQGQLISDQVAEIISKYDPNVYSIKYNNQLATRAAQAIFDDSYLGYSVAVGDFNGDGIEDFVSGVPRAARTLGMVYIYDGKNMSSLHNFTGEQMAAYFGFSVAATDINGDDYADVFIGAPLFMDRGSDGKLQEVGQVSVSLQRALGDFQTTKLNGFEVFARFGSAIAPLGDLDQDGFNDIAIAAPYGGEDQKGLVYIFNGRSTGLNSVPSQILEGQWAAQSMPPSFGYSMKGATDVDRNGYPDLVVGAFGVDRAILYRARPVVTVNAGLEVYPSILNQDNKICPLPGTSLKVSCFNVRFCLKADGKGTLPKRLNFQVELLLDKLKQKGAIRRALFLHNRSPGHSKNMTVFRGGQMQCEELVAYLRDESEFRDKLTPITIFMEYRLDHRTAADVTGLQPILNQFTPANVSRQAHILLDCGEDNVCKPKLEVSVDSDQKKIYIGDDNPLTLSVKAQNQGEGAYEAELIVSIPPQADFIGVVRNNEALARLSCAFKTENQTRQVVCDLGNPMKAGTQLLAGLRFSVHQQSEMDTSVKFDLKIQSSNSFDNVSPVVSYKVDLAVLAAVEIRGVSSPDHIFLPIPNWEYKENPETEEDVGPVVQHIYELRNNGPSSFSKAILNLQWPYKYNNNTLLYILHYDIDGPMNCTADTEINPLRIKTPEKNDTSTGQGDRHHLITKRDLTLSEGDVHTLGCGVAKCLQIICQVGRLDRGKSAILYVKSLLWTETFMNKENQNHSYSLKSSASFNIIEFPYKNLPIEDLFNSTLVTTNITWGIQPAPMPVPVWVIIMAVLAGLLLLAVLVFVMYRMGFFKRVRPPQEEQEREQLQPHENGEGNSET
Assay: Binding of FITC-labeled sPLA2-IIA to αvβ3 on the cell surface (flow cytometry)
Assay type: cell-based, human
Conditions: 10 μg/ml, 10 mM Mg2+, room temperature, 30 min
Description: FIG. 1. sPLA2-IIA binding to integrin αvβ3. a) Cell adhesion to sPLA2-IIA in an αvβ3- and proteoglycans-dependent manner. Wells of a 96-well microtiter plate were coated with sPLA2-IIA at indicated coating concentrations. Remaining protein-binding sites were blocked with BSA. CHO cells expressing recombinant αvβ3 (β3-CHO), mock-transfected CHO cells, proteoglycans-deficient CHO cell variant (pgs745), expressing recombinant αvβ3 (β3-745), and mock-transfected pgs745 cells (10^5 cells per well in 100 μl Tyrodes-HEPES with 1 mM MgCl2) were added to the wells. After incubating for 1 h at 37° C., unbound cells were removed by gentle rinsing and bound cells were quantified using endogenous phosphatase activity (Prater, C. A. et al., J. Cell Biol., 112:1031-1040 (1991)). Data is shown as means+/−SEM of triplicate experiments. b) Effect of anti-(33 mAb 7E3 on adhesion of β3-CHO cells to immobilized sPLA2-IIA. […] Bound FITC (FL1) and PE (FL2) were quantified in flow cytometry. […] Bound αvβ3 was detected using peroxidase-conjugated anti-6His antibody. Bound peroxidase activity was measured. […]
Binding of FITC-labeled sPLA2-IIA to integrins on the cell surface sPLA2-IIA was labeled with FITC using Fluorescein labeling kit (Pierce) according to the manufacturer's instructions. […] Bound FITC (FL1) and PE (FL2) were quantified in flow cytometry.

B1: FITC-sPLA2-IIA: sPLA2-IIA labeled with FITC using Fluorescein labeling kit (conjugate)
chain: NLVNFHRMIKLTTGKEAALSYGFYGCHCGVGGRGSPKDATDRCCVTHDCCYKRLEKRGCGTKFLSYKFSNSGSRITCAKQDSCRSQLCECDKAAATCFARNKTTYNKKYQYYSNKHCRGSTPRC
modifications: left off: small tags and cut ends
notes: sPLA2-IIA labeled with FITC using Fluorescein labeling kit
**Q.** How did the “binding to cells expressing high-level αvβ3 vs little αvβ3” value turn out when B1 was run?
**A.** much higher levels
